In one data set the target is T1, DcR1 (Homo sapiens, UniProt O14798).
T1 construct: soluble, recombinant DcR1-Ig (sDcR1) and DcR2-Ig (sDcR2); purchased R&D Systems
T1 sequence (O14798 26-236 limits assumed): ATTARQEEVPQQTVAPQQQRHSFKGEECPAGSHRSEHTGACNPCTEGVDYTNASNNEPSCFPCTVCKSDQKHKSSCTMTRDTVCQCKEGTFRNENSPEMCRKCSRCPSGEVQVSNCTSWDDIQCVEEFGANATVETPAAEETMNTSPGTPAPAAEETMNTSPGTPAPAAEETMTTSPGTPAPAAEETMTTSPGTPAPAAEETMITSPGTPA
The following applies: cited from earlier work.

The test system of data set [1] is A2780 cells. Description: Microculture tetrazolium cytotoxicity assay in A2780. Type of data set: cell-based, human. To be noted: A2780, 96 h. As for the experimental part:
The microculture tetrazolium assay, performed as described earlier^36, was used to measure cytotoxicity. […] In cell viability assays assessing combination treatment with cisplatin, the cells were pre-incubated for 4 h (h) with 2.5 μM cisplatin (inhibitory concentration 20%-IC20), before addition of 0-25 ng/ml TRAIL or TRAIL-DR5.

Data set [2] has as its system Colo205 cells. Description: Annexin V apoptosis in Colo205 after PI3K inhibition. The following applies: 20 μM LY294002 15-18 hours, ligand 0.1 μg/ml 3 h. Type of data set: cell-based, human. The protocol:
Modulation of TRAIL and D269H/E195R induced apoptosis by PI3K inhibition in Colo205, as assessed by Annexin V assay. Cells were pre-incubated for 15-18 hours with 20 μM LY294002, then either left untreated or exposed to rhTRAIL (0.1 μg/ml) or D269H/E195R (0.1 μg/ml) for 3 additional hours before harvest.

In data set [3] the test system is Colo205 cells. Description: Colo205 apoptosis after pre-incubation of ligand with soluble receptor-Ig. To be noted: 10 ng/ml ligand; for effect of pre-incubation with sDcR1 on pro-apoptotic activity: sDcR1 up to 2 μg/ml. Type of data set: cell-based, human. As for the experimental part:
(A) Effect of soluble recombinant DcR1-Ig (sDcR1) on apoptosis induction by TRAIL and DR5-selective variants. […] All graphs are representatives of two independent repeats. (D) Neutralizing antibodies against DcR1 and DcR2 can augment wtTRAIL- but not DR5-variant induced cell death. […] Induction of apoptosis was measured 3 h post-treatment using Annexin V assay. […] The graphs show the average±SEM of three independent experiments.
Induction of cell death was assessed by Annexin V assay 3 h after treatment (FIG. 14), as described above. […] (FIG. 14C). This confirms that the observed differences in blocking efficacy are due to reduced ability of the decoy receptors to bind and inhibit D269H and D269HE195R.

A further data set deals with T2, DR4 (Homo sapiens, UniProt O00220).
T2 construct: the more commonly used dimeric TRAIL-receptor-IgG Fc chimeric constructs
T2 sequence (O00220 24-239 limits assumed): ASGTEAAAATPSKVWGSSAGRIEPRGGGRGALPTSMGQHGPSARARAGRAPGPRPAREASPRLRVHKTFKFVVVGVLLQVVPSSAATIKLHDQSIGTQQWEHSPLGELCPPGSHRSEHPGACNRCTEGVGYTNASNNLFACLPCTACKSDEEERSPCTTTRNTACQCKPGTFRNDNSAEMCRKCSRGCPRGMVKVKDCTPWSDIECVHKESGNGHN
The following applies: cited from earlier work.

The test system of another data set is Caski cells. Description: Cell survival / sensitivity of Caski. Format: cell-based.
A further data set addresses T3, DcR2 (Homo sapiens, UniProt Q9UBN6).
T3 construct: soluble, recombinant DcR1-Ig (sDcR1) and DcR2-Ig (sDcR2); purchased R&D Systems
T3 sequence (Q9UBN6 56-211 limits assumed): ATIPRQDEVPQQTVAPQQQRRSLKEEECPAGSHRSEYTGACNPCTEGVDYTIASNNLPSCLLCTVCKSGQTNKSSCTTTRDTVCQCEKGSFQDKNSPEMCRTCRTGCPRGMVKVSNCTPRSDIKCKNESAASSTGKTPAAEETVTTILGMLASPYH
To be noted: cited from earlier work.

The subject of data set [4] is A2780 cells. Description: Annexin V apoptosis assay in A2780. Type of data set: cell-based, human.
In data set [5] the test system is human umbilical vein endothelial cells (HUVEC). Description: Viability of HUVEC. Type of data set: cell-based. To be noted: for cell viability: 50-500 ng/ml, 24 h, MTT. The protocol: (§1) Human dermal fibroblasts were grown in low glucose DMEM (Sigma) supplemented with 10% fetal calf serum, 50 U/ml penicillin and […] streptomycin; human umbilical vein endothelial cells (HUVEC, PromoCell) were cultured in Endothelial Cell Growth Medium with SupplementMix (PromoCell). Fibroblasts and HUVEC cells were seeded at 1.3×10^5 cells/ml 24 h before treatment with increasing concentrations of TRAIL and DR5-selective variants, D269H and D269HE195R (50-500 ng/ml) for 24 h and cell viability was measured using MTT assay, wherein 200 μg/ml MTT (3-(4,5-dimethylthiazo1-2-yl)-2,5-diphenyl-tetrazolium bromide) was added to control and treated cells and incubated for 3 h at 37° C. The reaction was stopped and the purple formazan precipitate formed was dissolved using dimethyl sulfoxide (DMSO) and the colour intensity was measured at 550 nm on a Wallac multilabel counter. The control value corresponding to untreated cells was taken as 100% and the viability of treated samples was expressed as a percentage of the control. (FIG. 15).

The subject of the next data set is Human dermal fibroblasts. Description: MTT viability of human dermal fibroblasts. Type of data set: cell-based. To be noted: 50-500 ng/ml, 24 h. As for the experimental part:
as §1

Data set [6] has as its system Colo205 cells. Description: Cell survival / sensitivity of Colo205. Format: cell-based. The protocol:
(B) Effect of increasing concentrations of Aspirin on cell viability. (C) Effect of increasing concentrations of 5-Flurouracil on cell viability. (D) Combination therapy with 5 mM Aspirin pre-incubated for 24 h lead to further decreases in cell viability in cells treated with both TRAIL and two of the DR5 mutants. (E) 30 minute incubation of DR5 mutants, were sufficient decrease cell viability which was further augmented when cells were pre-incubated for 24 h with Aspirin. The shorter incubation period lead to a decrease potency of TRAIL alone or in combination with Aspirin. […] (G) 30 min incubation of the DR5 mutant was sufficient to decrease cell viability which was not enhanced by 5-Flurouracil, and once again the decease potency of TRAIL is seen. Proteins are indicated as follows: TRAIL stands for rhTRAIL WT; D269H stands for rhTRAIL carrying mutation D269H; E195R stands for rhTRAIL carrying mutations D269H and E195R; and M1 stands for rhTRAIL carrying mutations D269H, E194I and I196S.
TRAIL-induced cell death as a function of concentration was measured with the MTS assay.

A further data set deals with EM-2 cells. Description: Cytotoxicity in EM-2 cells. Type of data set: cell-based. An excerpt: Similar results were obtained by using EM-2 chronic myeloid leukemia cells expressing only the DR4 receptor and lacking the DR5 receptor and by using the ovarian cancer cell line A2780, which expresses DR5 but lacks DR4 on its surface and is relatively insensitive toward TRAIL-induced cell death.

“Also recorded” adds a separate entry of the source. Some results are limits rather than exact numbers.

B1: wtTRAIL: wild-type soluble recombinant human TRAIL, amino acids 114-281 (SEQ ID NO: 3) (protein, listed as Homo sapiens)
chain: MVRRGRVAAHTGTRGRSNTSSNSKNKAGRKNSWSSRSGHSSNHRNGVHKGYYYSTYRKNTKNDKMVYYKYTSYDMKSARNSCWSKDAYGYSYGGKNDRVSVTNHDMDHASGAVG
modifications: TRAIL 114-281
Consider B1, for which the Kd in the data set with DcR1 (surface plasmon resonance, read-out: binding affinity Kd for DcR1) is roughly 25 nM; in the data set with DR4 (surface plasmon resonance, read-out: binding affinity Kd for DR4), 2.5 nM; in the data set with DcR2 (surface plasmon resonance, read-out: binding affinity Kd for DcR2), roughly 8 nM. In the data set on A2780 cells [1], the “cell survival / viability” value is “dose dependent loss of viability”. In the data set on Colo205 cells [2], the “change of sensitivity after PI3K inhibition” value was “slightly decreased”. Besides, the “effect of pre-incubation with sDcR2 on apoptosis induction” value in the data set on Colo205 cells [3] is reported as “able to block apoptosis induction”. In the data set on Colo205 cells [3], the “effect of pre-incubation with soluble DR5 on pro-apoptotic activity” value is recorded as “completely block”. For the same molecule, in the data set with Colo205 cells [3], the “effect of pre-incubation with sDcR1 on pro-apoptotic activity” value is listed as “completely blocked”. Also, in the data set with Caski cells, the “cell viability, single agent” value is “comparable”. In the data set with Caski cells, the “effect of combination with bortezomib” value was “increased tumor cell death”. Further, the cell death in the data set with A2780 cells [4] (A2780, highest concentration tested 250 ng/ml) is no more than 24.3±4.5%; with EM-2 cells (EM-2, 50 ng/ml), greater than 80%. Besides, in data set [5] (100 ng/ml), the “cytotoxic effects on noncancerous cells” value is reported as “no cytotoxic effects were observed”. In addition, the cell viability result (in data set [5]; in the data set with Human dermal fibroblasts) was “Neither wtTRAIL nor the DR5-selective variants had any effect; also recorded: did not result in a decrease in cell viability” in each case. Moreover, the “effect of 5-FU and Aspirin on induced apoptosis” value in the data set on Colo205 cells [6] (Colo205) is reported as “enhanced apoptosis”.

B2: D269HE195R: rhTRAIL (114-281) carrying mutations D269H and E195R; DR5-selective TRAIL variant (protein)
chain: MVRERGPQRVAAHITGTRGRSNTLSSPNSKNEKALGRKINSWESSRSGHSFLSNLHLRNGELVIHEKGFYYIYSQTYFRFQERIKENTKNDKQMVQYIYKYTSYPDPILLMKSARNSCWSKDAEYGLYSIYQGGIFELKENDRIFVSVTNEHLIDMHHEASFFGAFLVG
On to B2, for which the “binding capacity to DcR1” value with DcR1 (earlier work referred to) was “virtually absent”. In the data set with A2780 cells [1], the “cell survival / viability” value was “decreased cell survival more effectively than TRAIL”. In addition, the “change of sensitivity after PI3K inhibition” value in the data set on Colo205 cells [2] is “enhanced”. Also, in the data set with Colo205 cells [3], the “effect of pre-incubation with sDcR2 on apoptosis induction” value is given as “no complete protection could be achieved” and the “effect of pre-incubation with sDcR1 on pro-apoptotic activity” value is “failed to reduce”. In addition, the “binding to DR4” value in the data set with DR4 (earlier work referred to) is listed as “virtually absent”. For the same molecule, in the data set with Caski cells, the “cell viability, single agent” value is given as “comparable” and the “effect of combination with bortezomib” value is “increased tumor cell death”. For the same molecule, the “affinity for DcR2” value with DcR2 (earlier work referred to) is listed as “reduced”. Moreover, the apoptosis with A2780 cells [4] (A2780, 10 ng/ml, Annexin V) is recorded as 30.6±2.5%. Moreover, the cell viability result in [5] is on record as “did not result in a decrease in cell viability”. In the data set with Human dermal fibroblasts, the cell viability result was “did not result in a decrease in cell viability”. In the data set on Colo205 cells [6] (Colo205), the “cell viability, single agent” value is on record as “significantly less cell viability than TRAIL”; the “effect of 5-FU and Aspirin on induced apoptosis” value was “enhanced apoptosis”; the “sensitivity, single agent comparison” value was “higher sensitivity”. In addition, the “efficient concentration compared to wtTRAIL” value with Colo205 cells [6] (Colo205, MTS dose-response) was “efficient at a several fold lower concentration than needed for wtTRAIL”. In addition, the cell death induction entry with EM-2 cells (EM-2 cells) is reported as “hardly any apoptosis”.

The values above are taken from US20110165265A1, “TRAIL VARIANTS FOR TREATING CANCER” (FUNDACIÓ GENÒMICA (CRG), priority 2007, published 2011).
